# Source: publication PMC7271347
# Read-outs that look alike come from different tables or passages of the source.
# Legend:
# Assay in all cases: SEC-MALS
# [1] = target: λ Ea22(1–182) (bacteriophage λ)
# [2] = target: λ Ea22(93–182) (bacteriophage λ)
# [3] = target: λ Ea22(102–182) (bacteriophage λ)
# [4] = target: λ Ea22(109–182) (bacteriophage λ)
# [5] = target: φ24B Ea22(135–261) (bacteriophage φ24B)
# [6] = target: φ24B Ea22(135–261) (bacteriophage φ24B); remark: listed apart in the source
# [7] = target: φP27 Ea22(1–315) (bacteriophage φP27)
substance,measurement,setting,value
λ Ea22(1–182) (natural protein),stoichiometry N,[1],4
λ Ea22(93–182) (domain or fragment),stoichiometry N,[2],2
λ Ea22(102–182) (domain or fragment),stoichiometry N,[3],2
λ Ea22(109–182) (domain or fragment),stoichiometry N,[4],2
φ24B Ea22(135–261) (domain or fragment),stoichiometry N,[5],2
same,stoichiometry N,[6],4
φP27 Ea22(1–315) (natural protein),stoichiometry N,[7],4
